Data: patent US20170101476A1 (Novartis, published 2017)

T1: Human CXCR2 (human, UniProt P25025 1-360)
T1 sequence: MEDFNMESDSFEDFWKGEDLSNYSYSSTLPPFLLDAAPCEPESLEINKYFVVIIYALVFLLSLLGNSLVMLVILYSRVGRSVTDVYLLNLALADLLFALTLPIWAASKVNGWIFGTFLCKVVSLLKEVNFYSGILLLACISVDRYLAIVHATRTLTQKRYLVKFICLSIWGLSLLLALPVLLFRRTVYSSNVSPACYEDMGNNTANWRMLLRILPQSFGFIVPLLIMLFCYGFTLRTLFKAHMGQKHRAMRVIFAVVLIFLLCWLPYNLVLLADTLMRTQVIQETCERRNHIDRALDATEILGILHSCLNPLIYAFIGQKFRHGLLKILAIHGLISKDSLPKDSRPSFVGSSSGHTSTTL

T2: Cynomolgus CXCR2 (cynomolgus, UniProt Q28519 3-353 (rhesus entry))
T2 chain: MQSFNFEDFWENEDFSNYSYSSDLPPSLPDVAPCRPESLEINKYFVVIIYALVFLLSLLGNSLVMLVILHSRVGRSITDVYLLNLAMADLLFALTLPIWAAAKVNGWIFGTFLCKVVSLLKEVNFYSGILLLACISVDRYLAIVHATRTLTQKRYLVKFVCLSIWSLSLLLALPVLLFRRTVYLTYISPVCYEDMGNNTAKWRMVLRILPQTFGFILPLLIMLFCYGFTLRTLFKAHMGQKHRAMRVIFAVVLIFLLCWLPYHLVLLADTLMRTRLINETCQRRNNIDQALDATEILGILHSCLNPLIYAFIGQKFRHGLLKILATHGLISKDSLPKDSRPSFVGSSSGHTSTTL

B1: 163D02 (VHH, not shown: small tags and cut ends)
VHH: EVQLVESGGGLVQAGGSLRLSCAASGRTFSDYAMGWFRQAPGKEREFVAAITWNGGRVFYTASVKGRFTISRDNAKNTMYLQMNSLKPEDTAVYYCAADKDRRTDYLGHPVAYWGQGTQVTVSS
B2: 163E03 (VHH, not shown: small tags and cut ends)
VHH: EVQLVESGGGLVQPGGSLRLSCVASGRIFSSNAMGWFRQAPGKEREFVAAITWRSGGSAYYADSAKGRFTISRDNAKNTVYLQMNSLKPEDTAVYYCAAGGSSWLSFPPDYWGQGTQVTVSS
B3: 54B12 (VHH, not shown: small tags and cut ends)
VHH: EVQLVESGGGLVQAGGSLTLSCAVSGSTFRINTMGWYRRAPGKQRELVAARDRGGYINYVDSVKGRFTVSRDNAKPTMYLQMNSLKPEDTAVYYCHAGTQDRTGRNFDRWGQGTQVTVSS
B4: 2B2 (VHH, not shown: small tags and cut ends)
VHH: EVQLVESGGELVQPGGSLRLSCAASGSILTINAMGWYRQAPGKQRELVVRRTRGGSTTYQDSVKGRFTISADIAKKTMYLQMNSLKPEDTAVYYCMLDDRGGVYWGQGTQVTVSS
B5: 097A09 (VHH, not shown: small tags and cut ends)
VHH: EVQLVESGGGLVQPGGSLRLSCVASGSIVRINTMGWYRQTPGKQRELVADITSGGNINYIDAVKGRFTISRDNTKNTVYLQMNSLKPEDTAVYYCNAEIVVLVGVWTQRARTGNYWGQGTQVTVSS

target: T1, Human CXCR2; assay: cell-based or functional assay

In order of rising “FLIPR IC50, GRO-α induced intracellular calcium release” value:
1. B1  1.91 nM
2. B5  39.9 nM
3. B2  44.3 nM
4. B3  153 nM
5. B4  441 nM

In order of falling “[35S]GTPγS % inhibition max, GRO-α” value:
1. B1  100%
2. B2  100%
3. B5  100%
4. B3  71.8%
5. B4  71.3%

In order of falling “[35S]GTPγS accumulation IC50, GRO-α” value:
1. B4  103 nM
2. B2  64.7 nM
3. B1  53.2 nM
4. B5  50.3 nM
5. B3  15.4 nM

Target: T2, Cynomolgus CXCR2
Assay: cell-based or functional assay

In order of falling “FLIPR IC50, GRO-α induced intracellular calcium release” value:
1. B3  4080 nM
2. B4  3850 nM
3. B5  640 nM
4. B2  158 nM
5. B1  37.2 nM

target: T1, Human CXCR2; assay: cell-based or functional assay; remark: another data set of the same source

In order of falling “HumanWBSC IC50 (rhGROα)” value:
1. B4  29.5 nM
2. B3  19.7 nM
3. B5  11.6 nM
4. B2  9.4 nM
5. B1  6.6 nM

In order of rising “Human Chemotaxis IC50 (GROα)” value:
1. B2  1.3 nM
2. B5  4.8 nM
3. B4  50 nM
